Assay results taken from US20070149763A1 (Bristol-Myers Squibb, published 2007).
One block for each molecule: values may come before it. Where no end group is shown, it is not given here. Alexa488 = Alexa488 fluorophore label

How the values were obtained:
[1] = target: BACE (recombinant human BACE catalytic domain, expressed in CHO cells as BACE-T-IgG, IgG1 removed with thrombin) (human) (UniProt P56817); experiment: binding assay without UV light (fluorescence anisotropy); absence of UV light
[2] = target: BACE (recombinant human BACE catalytic domain, expressed in CHO cells as BACE-T-IgG, IgG1 removed with thrombin) (human) (UniProt P56817); experiment: fluorescence anisotropy binding assay
[3] = target: BACE (recombinant human BACE catalytic domain, expressed in CHO cells as BACE-T-IgG, IgG1 removed with thrombin) (human) (UniProt P56817); experiment: cell-based or functional assay
[4] = target: BACE (recombinant human BACE catalytic domain, expressed in CHO cells as BACE-T-IgG, IgG1 removed with thrombin) (human) (UniProt P56817); experiment: fluorescence anisotropy binding assay, pH 4.5; comparison of label positions (X, Y1, Z)
[5] = target: BACE (recombinant human BACE catalytic domain, expressed in CHO cells as BACE-T-IgG, IgG1 removed with thrombin) (human) (UniProt P56817); experiment: fluorescence anisotropy, BACE titrated into 10 nM Molecule Y1 in the presence of 10 µM OM99-2, fit to 1:1 binding (error 1.5032); this table prints 'Kd' without a unit, nM is taken from the concentration axis and the -OM99-2 table
[6] = target: BACE (recombinant human BACE catalytic domain, expressed in CHO cells as BACE-T-IgG, IgG1 removed with thrombin) (human) (UniProt P56817); experiment: fluorescence anisotropy, BACE titrated into 10 nM Molecule Y1 with 10 µM OM99-2; reference: without OM99-2
[7] = target: BACE (recombinant human BACE catalytic domain, expressed in CHO cells as BACE-T-IgG, IgG1 removed with thrombin) (human) (UniProt P56817); experiment: fluorescence anisotropy, BACE titrated into 10 nM Molecule Y1, no OM99-2, fit to 1:1 binding (error 2.1556); the text prints this value rounded (57 / 58 nM)
[8] = target: BACE (recombinant human BACE catalytic domain, expressed in CHO cells as BACE-T-IgG, IgG1 removed with thrombin) (human) (UniProt P56817); experiment: ITC, pH 5.3, 37° C., peptide titrated into CHO BACE pre-incubated with a 10-fold excess of OM99-2
[9] = target: BACE (recombinant human BACE catalytic domain, expressed in CHO cells as BACE-T-IgG, IgG1 removed with thrombin) (human) (UniProt P56817); experiment: ITC, Dulbecco's PBS, pH 7.1, 25° C.
[10] = target: BACE (recombinant human BACE catalytic domain, expressed in CHO cells as BACE-T-IgG, IgG1 removed with thrombin) (human) (UniProt P56817); experiment: fluorescence anisotropy competition against Molecule X, pH 4.5
[11] = target: BACE (recombinant human BACE catalytic domain, expressed in CHO cells as BACE-T-IgG, IgG1 removed with thrombin) (human) (UniProt P56817); experiment: fluorescence anisotropy competition against Molecule X on BACE, pH 7.1, upper panel; labelled 'Ka' on the sheet without a unit, it is the dissociation constant of the competing ligand, nM from the axis and the lower table; error 33.456; the text prints it rounded (84 nM)
[12] = target: BACE (recombinant human BACE catalytic domain, expressed in CHO cells as BACE-T-IgG, IgG1 removed with thrombin) (human) (UniProt P56817); experiment: fluorescence anisotropy competition against 10 nM Molecule X on BACE, pH 7.1, upper panel
[13] = target: BACE (recombinant human BACE catalytic domain, expressed in CHO cells as BACE-T-IgG, IgG1 removed with thrombin) (human) (UniProt P56817); experiment: fluorescence anisotropy competition against Molecule X on BACE, pH 4.5, lower panel; labelled 'Ka(nM)' on the sheet, it is the dissociation constant of the competing ligand; error 337.16; the text prints it rounded (1073 nM)
[14] = target: BACE (recombinant human BACE catalytic domain, expressed in CHO cells as BACE-T-IgG, IgG1 removed with thrombin) (human) (UniProt P56817); experiment: fluorescence anisotropy competition against Molecule X, pH 7.1
[15] = target: BACE (recombinant human BACE catalytic domain, expressed in CHO cells as BACE-T-IgG, IgG1 removed with thrombin) (human) (UniProt P56817); experiment: ITC, pH 5.3, 37° C., peptide titrated into CHO BACE
[16] = target: BACE (recombinant human BACE catalytic domain, expressed in CHO cells as BACE-T-IgG, IgG1 removed with thrombin) (human) (UniProt P56817); experiment: ITC, 25° C., Dulbecco's PBS
[17] = target: BACE (recombinant human BACE catalytic domain, expressed in CHO cells as BACE-T-IgG, IgG1 removed with thrombin) (human) (UniProt P56817); experiment: fluorescence anisotropy competition against Molecule Y1, pH 4.5
[18] = target: BACE (recombinant human BACE catalytic domain, expressed in CHO cells as BACE-T-IgG, IgG1 removed with thrombin) (human) (UniProt P56817); experiment: fluorescence anisotropy competition against 10 nM Molecule Y1 on BACE, pH 4.5
[19] = target: BACE (recombinant human BACE catalytic domain, expressed in CHO cells as BACE-T-IgG, IgG1 removed with thrombin) (human) (UniProt P56817); experiment: fluorescence anisotropy competition against Molecule Y1 on BACE, pH 4.5; labelled 'Ka(nM)' on the sheet, it is the dissociation constant of the competing ligand; error 102.58; the text prints 1197 nM
[20] = target: BACE (recombinant human BACE catalytic domain, expressed in CHO cells as BACE-T-IgG, IgG1 removed with thrombin) (human) (UniProt P56817); experiment: ITC, Dulbecco's PBS, pH 7.0, 25° C.
[21] = target: BACE (recombinant human BACE catalytic domain, expressed in CHO cells as BACE-T-IgG, IgG1 removed with thrombin) (human) (UniProt P56817); experiment: ITC, 50 mM NaOAc, pH 4.5, 25° C.
[22] = target: BACE (recombinant human BACE catalytic domain, expressed in CHO cells as BACE-T-IgG, IgG1 removed with thrombin) (human) (UniProt P56817); experiment: ITC, 25° C., 50 mM NaOAc, pH 4.5
[23] = target: BACE (recombinant human BACE catalytic domain, expressed in CHO cells as BACE-T-IgG, IgG1 removed with thrombin) (human) (UniProt P56817); experiment: fluorescence anisotropy, BACE titrated into 10 nM labeled peptide, pH 4.5, 1:1 model
[24] = target: BACE (recombinant human BACE catalytic domain, expressed in CHO cells as BACE-T-IgG, IgG1 removed with thrombin) (human) (UniProt P56817); experiment: fluorescence anisotropy binding assay, pH 4.5
[25] = target: BACE (recombinant human BACE catalytic domain, expressed in CHO cells as BACE-T-IgG, IgG1 removed with thrombin) (human) (UniProt P56817); experiment: fluorescence anisotropy, BACE titrated into 10 nM labeled peptide, pH 7.1, 1:1 model
[26] = target: BACE (recombinant human BACE catalytic domain, expressed in CHO cells as BACE-T-IgG, IgG1 removed with thrombin) (human) (UniProt P56817); experiment: fluorescence anisotropy, pH 4.5 (value quoted for the labeled EBP used in the truncation screen)
[27] = target: T1, BACE-1 (T7-BACE1(A14-T454)) (Homo sapiens (Human), UniProt P56817 14-454); experiment: X-ray crystallography, peptide soaked into BACE-1/DPH-153979 co-crystal
T1 construct: BACE dimer in the asymmetric unit; also called Construct #1
Method: Crystals appeared overnight and grew to their final dimensions (0.4×0.3×0.2 mm) in about two weeks.
Data were collected at 100° K using a Rigaku R-axis II system mounted on a RU-200 rotating anode generator and processed using HKL2000 (Otwinowski et. al., (1997) Methods in Enzymology, Macromolecular Crystallography, Part A; C. W. Carter, Jr. and R. M. Sweet, Eds.; Academic Press: New York, 276:307-326) (Table 6). The structure was determined by molecular replacement using the program EPMR (Kissinger et. al. (1999) Acta Crystallog. Sect. D, 55:484-491) in space group P2₁ with one BACE dimer per asymmetric unit. The starting model used was a BACE dimer (without inhibitor) from a previously determined structure. […] The active site inhibitor DPH-153979 was built into the electron density using the program QUANTA (Accelrys Software, Inc.) and refinement was carried out using the program CNX (Accelrys Software, Inc.). […] Refinement was not carried out past initial building of YPYFI due to ambiguous exosite peptide density.

Sequence of BACE (recombinant human BACE catalytic domain, expressed in CHO cells as BACE-T-IgG, IgG1 removed with thrombin) (human) (P56817 43-460 limits assumed, form in doubt): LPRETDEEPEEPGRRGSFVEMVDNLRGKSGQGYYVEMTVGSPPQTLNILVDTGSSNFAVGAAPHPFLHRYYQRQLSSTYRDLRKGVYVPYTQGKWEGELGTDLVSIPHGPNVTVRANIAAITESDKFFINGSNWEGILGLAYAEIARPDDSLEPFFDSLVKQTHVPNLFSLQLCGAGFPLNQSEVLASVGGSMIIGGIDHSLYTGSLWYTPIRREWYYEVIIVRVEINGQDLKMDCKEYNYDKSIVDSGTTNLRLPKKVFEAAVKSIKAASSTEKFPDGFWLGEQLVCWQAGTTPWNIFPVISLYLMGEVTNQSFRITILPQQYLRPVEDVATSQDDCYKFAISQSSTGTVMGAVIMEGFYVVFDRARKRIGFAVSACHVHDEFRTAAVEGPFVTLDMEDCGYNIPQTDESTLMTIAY
T1 sequence (P56817 other isoform, or with tags, fused parts or gaps limits assumed): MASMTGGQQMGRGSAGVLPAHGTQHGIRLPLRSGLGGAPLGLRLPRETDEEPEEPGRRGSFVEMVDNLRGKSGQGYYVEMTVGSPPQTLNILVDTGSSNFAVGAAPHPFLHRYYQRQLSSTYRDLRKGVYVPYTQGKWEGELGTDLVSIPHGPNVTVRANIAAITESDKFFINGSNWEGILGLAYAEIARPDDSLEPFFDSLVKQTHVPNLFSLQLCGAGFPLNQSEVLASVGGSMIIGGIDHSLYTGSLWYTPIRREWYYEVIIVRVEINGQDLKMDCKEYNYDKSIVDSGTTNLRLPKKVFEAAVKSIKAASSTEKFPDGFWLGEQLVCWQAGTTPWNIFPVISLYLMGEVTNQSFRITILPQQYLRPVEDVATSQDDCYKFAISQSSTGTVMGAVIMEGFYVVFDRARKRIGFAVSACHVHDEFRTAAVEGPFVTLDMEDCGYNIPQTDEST

- Kd [8]: 280 nM
- Stoichiometry (mole:mole) [8]: 0.96 mole:mole
- T(dS) [8]: -5.7 kcal/mol
- ΔG [8]: -9.3 kcal/mol
- ΔH [8]: -15 kcal/mol
- Kd [9]: 61 nM
- Kd [10]: 1070 nM
- Kd [11]: 84.2 nM
- IC50 (read off the curve) [12]: 500 nM
- Kd [13]: 1070 nM
- Kd [14]: 84 nM
- Kd [15]: 380 nM
- Stoichiometry (mole:mole) [15]: 0.93 mole:mole
- T(dS) [15]: -6.8 kcal/mol
- ΔG [15]: -9.1 kcal/mol
- ΔH [15]: -15.9 kcal/mol
- Ka [16]: 1.65e+07 M⁻¹
- n (stoichiometry) [16]: 1.03
- ΔH [16]: -12.9 kcal/mol
Molecule: Ac-NLTTYPYFIPLP-NH2

- Kd [17]: 1200 nM
- IC50 (read off the curve) [18]: 3000 nM
- Kd [19]: 1200 nM
Molecule: Ac-YPYFIPL-NH2

- Kd [23]: 904 nM
- Kd [24]: 903 nM
- Kd [25]: 139 nM
- Kd [26]: 1000 nM
Molecule: NLTTYPYFIPLP (also: Alexa488 label, position shown only) [Molecule X (… labeled with Alexa488)]

- Kd [2]: 92 nM
Molecule: YPYFIPL (not fully specified (N-terminus, C-terminus)) [Molecule Y2]

- Kd [2]: 62 nM
Molecule: YPYFIPL (not fully specified (N-terminus, C-terminus)) [Molecule Y4]

Second part, the molecule before the results:

Molecule: YPYFIPB-Alexa488 (peptide)
- Kd [1]: 100 nM

Molecule: YPBFIPL-Alexa488 (peptide)
- Kd [1]: 100 nM

Molecule: YPYFIPL (not fully specified (N-terminus, C-terminus)) [Molecule Y3]
- Kd [2]: 48 nM
- IC50, inhibition of the proteolytic activity of BACE (cleavage of MCA-…(-dnp)-COOH, HPLC) [3]: 731 nM

Molecule: YPYFIPL (not fully specified (N-terminus, C-terminus)) [Molecule Y1 (YPYFIPL with C-terminal Alexa488)]
- Kd [4]: 58 nM
- Kd [2]: 57 nM
- Kd [5]: 9.59 nM
- fold enhancement of affinity in the presence of 10 µM OM99-2 [6]: 5 fold
- Kd [7]: 57.6 nM

Molecule: Ac-HWPFFIRS-NH2 [BMS-655507 (Ac-His-Trp-Pro-Phe-Phe-Ile-Arg-Ser)]
- Kd [20]: 914 nM
- Stoichiometry [20]: 0.71
- TΔS [20]: -9.81 kcal/mol
- ΔG [20]: -8.23 kcal/mol
- ΔH [20]: -18 kcal/mol
- Kd [21]: 1640 nM
- Stoichiometry [21]: 0.86
- TΔS [21]: -5.46 kcal/mol
- ΔG [21]: -7.9 kcal/mol
- ΔH [21]: -13.3 kcal/mol
- Ka [22]: 610000 M⁻¹
- Ka [16]: 1.09e+06 M⁻¹

Molecule: Ac-ALYPYFLPISAK-NH2
- Kd [9]: 113 nM
- Ka [16]: 8.86e+06 M⁻¹
- n (stoichiometry) [16]: 1.06
- ΔH [16]: -11.8 kcal/mol

Molecule: YPYFIPL-Alexa488 [BMS-597041 (YPYFIPL-Alexa488 Fluorophore)]
- binding result [27]: binds
